Source: article PMC10361524
Each block holds one binder with its values, some of them ahead of it.

Tests used:
IL-20R2D (human), Q6UXL0 [1] = test: MST; as a1, but the IL-20R2D variant irradiated at 365 nm (100 mW, 5 min) before use
[2] = molecular target: IL-20R2D Y70NBY + UV (human), Q6UXL0; test: as above
IL-20R2D (human), Q6UXL0 [3] = test: MST; IL-20R2D variants labelled with RED-tris-NTA dye on the His tag, held constant at 50 nM; unlabelled IL-24B4 titrated; 50 mM Tris pH 8, 100 mM NaCl, 0.02% pluronic F127; not irradiated
[4] = molecular target: T1, IL-20R2D Y70NBY (human), Q6UXL0; test: as above
T1 chain: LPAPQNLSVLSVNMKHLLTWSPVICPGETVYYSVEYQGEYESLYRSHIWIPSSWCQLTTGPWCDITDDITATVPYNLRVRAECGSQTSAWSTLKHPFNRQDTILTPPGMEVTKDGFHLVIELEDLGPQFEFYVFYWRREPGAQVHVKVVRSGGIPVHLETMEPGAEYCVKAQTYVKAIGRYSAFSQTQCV

[5] = molecular target: T2, IL-20R2D Y70NBY/Y74NBY (human), Q6UXL0; test: as above
T2 chain: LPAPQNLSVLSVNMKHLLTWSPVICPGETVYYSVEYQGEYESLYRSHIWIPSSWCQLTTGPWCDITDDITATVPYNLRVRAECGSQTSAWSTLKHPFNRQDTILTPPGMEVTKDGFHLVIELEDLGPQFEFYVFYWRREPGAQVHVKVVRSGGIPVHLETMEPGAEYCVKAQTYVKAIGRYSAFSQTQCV

[6] = molecular target: T3, IL-20R2D Y74NBY (human), Q6UXL0; test: as above
T3 chain: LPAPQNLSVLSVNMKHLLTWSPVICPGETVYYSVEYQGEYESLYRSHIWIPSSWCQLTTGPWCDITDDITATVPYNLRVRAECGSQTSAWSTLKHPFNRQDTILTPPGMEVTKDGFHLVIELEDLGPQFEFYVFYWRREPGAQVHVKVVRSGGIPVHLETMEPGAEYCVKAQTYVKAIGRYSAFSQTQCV

IL-20R2D (human), Q6UXL0 [7] = test: as above; remark: listed apart in the source
[8] = molecular target: T4, IL-24B4 displayed on the yeast surface (version with an N-terminal linker of 17 amino acids, fused to a fluorescent protein) (human); test: flow cytometry on cells; yeast surface display of IL-24B4 (suspension enriched with 0.5% IL-24S yeast); CF640R-labelled IL-20R2D variants at 500, 100, 20, 4 and 0.1 nM in PBSB with 10 nM bilirubin, overnight at 4°C; apparent Kd (affinity and avidity); not irradiated
T4 sequence (main, as listed by the source): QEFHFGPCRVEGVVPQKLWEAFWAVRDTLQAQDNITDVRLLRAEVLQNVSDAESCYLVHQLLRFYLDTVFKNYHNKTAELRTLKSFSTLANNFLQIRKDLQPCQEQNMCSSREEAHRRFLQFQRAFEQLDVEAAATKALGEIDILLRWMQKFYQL

[9] = molecular target: T4, IL-24B4 displayed on the yeast surface …; test: flow cytometry on cells; as a3, but the labelled IL-20R2D variant UV irradiated (365 nm); apparent Kd

Kd (IL-20R2D (human), Q6UXL0 [1]): 3700 nM
Kd [2]: 3300 nM
Kd (IL-20R2D (human), Q6UXL0 [3]): 630 nM
Kd [4]: > 94000 nM
Kd [5]: 570 nM
Kd [6]: 430 nM
Kd (IL-20R2D (human), Q6UXL0 [7]): 500 nM
B1: IL-24B4 (SUMO-cleaved, C-terminal Strep-tag), Q13007 52-206 (ligand)
chain: FHFGPCRVEGVVPQELWEAFWAVRDTLQAQDNITDVRLLRAEVLQNVSDAESCYLVHQLLRFYLDTVFKNYHNKTAELRTLKSFSTLANNFVLIVSDLQPCQEQNMCSSREEAHRRFLQFQRAFEQLDVEAAATKALGEIDILLTWMQKFYQL
modifications: here or on the partner: designed disulfide Cys59-Cys117 (UniProt numbering)

Kd [8]: 2000 nM
B2: IL-20R2D Y70NBY, Q6UXL0 30-233 (receptor)
chain: LPAPQNLSVLSVNMKHLLTWSPVICPGETVYYSVEYQGEYESLYRSHIWIPSSWCQLTTGPWCDITDDITATVPYNLRVRAECGSQTSAWSTLKHPFNRQDTILTPPGMEVTKDGFHLVIELEDLGPQFEFYVFYWRREPGAQVHVKVVRSGGIPVHLETMEPGAEYCVKAQTYVKAIGRYSAFSQTQCV
modifications: here or on the partner: ortho-nitrobenzyl-tyrosine (NBY) at 70

Kd [9]: 9.6 nM
Kd [8]: 5 nM
B3: IL-20R2D, Q6UXL0 30-233 (receptor)
chain: LPAPQNLSVLSVNMKHLLTWSPVICPGETVYYSVEYQGEYESLYRSHIWIPSSWCQLTTGPWCDITDDITATVPYNLRVRAECGSQTSAWSTLKHPFNRQDTILTPPGMEVTKDGFHLVIELEDLGPQFEFYVFYWRREPGAQVHVKVVRSGGIPVHLETMEPGAEYCVKAQTYVKAIGRYSAFSQTQCV
modifications: here or on the partner: designed disulfide Cys59-Cys117 (UniProt numbering)

Kd [9]: 7.6 nM
B4: IL-20R2D Y70NBY + UV, Q6UXL0 30-233 (receptor)
chain: LPAPQNLSVLSVNMKHLLTWSPVICPGETVYYSVEYQGEYESLYRSHIWIPSSWCQLTTGPWCDITDDITATVPYNLRVRAECGSQTSAWSTLKHPFNRQDTILTPPGMEVTKDGFHLVIELEDLGPQFEFYVFYWRREPGAQVHVKVVRSGGIPVHLETMEPGAEYCVKAQTYVKAIGRYSAFSQTQCV
modifications: here or on the partner: UV-decaged, Tyr70 restored to canonical tyrosine; designed disulfide Cys59-Cys117
